Assays:
[1] = Conformational and thermodynamic classification of A1 domain variants (urea and thermal denaturation, CD, FL, ANS); assay type: physicochemical
Protocol: Circular dichroism measurements were performed on a Model No. 420C circular-dichroism spectrometer (Aviv Biomedical, Inc., Lakewood Township, N.J.). All fluorescence (FL) measurements were performed on a Fluorolog3 spectrofluorometer (HORIBA Jobin-Yvon, Edison, N.J.) equipped with a Model No. LF1-3751 temperature controller (Wavelength Electronics Inc., Bozeman, Mont.). Near- and far-ultraviolet (UV) circular dichroism (CD), intrinsic protein FL, and ANS (8-anilino naphthalene sulfonic acid) […] spectra were determined as described in Tischer et al. (19). Urea denaturation (monitored by far-UV CD) and thermal denaturation (monitored by far-UV CD, intrinsic protein FL, and ANS FL) were performed and analyzed as previously described (19,20). Acrylamide quenching of intrinsic tryptophan fluorescence was performed and analyzed as described in Tischer et al. (19). All spectra were collected at 20° C.
The effects of mutations on the thermodynamic stability of A1 (18) was determined and a framework that incorporated partial unfolding as a means for enhancing the binding affinity of A1 for GPIba was developed (17). Initially, urea-temperature phase diagram method were used for assessing the reversible thermodynamics of unfolding at various temperatures (18,21), and more recently thermal denaturations were used to assess kinetic irreversibility (20,22). The inventor employed these methods using a variety of spectroscopic observables that assess the conformation of these A1 domain variants as a function of temperature and urea.
The observables included the following: (1) Far-UV CD to assess secondary structure content; (2) Near-UV CD to assess tertiary structure content; (3) Intrinsic protein FL to assess solvent exposure of tyrosine and tryptophan residues; (4) Acrylamide quenching of tryptophan FL to assess local solvent exposure of the single tryptophan residue; and (5) Binding of the molten globule indicator-dye, ANS, to assess exposure of hydrophobic surface area.
In total, these studies have provided metrics that are able to classify the conformation of A1 into three types, based on biophysical spectroscopy, as follows:
The type 2B mutations R1306Q and I1309V and the type 2M mutation G1324S have previously been characterized in this conformational class (18). In addition, R1308L and I1372S also belong to this class.
The type 2M mutation A1437T and the type 2B mutation R1341Q belong to this class.
The type 2M mutations F1369I, E1359K, I1425F, S1285F, and R1374H, and the type 2B mutations H1268D, P1337L, V1316M, and V1314D, belong to this class.

platelet GPIbα = target: T1, platelet GPIbα (Homo sapiens, UniProt P07359); assay: Platelet pause times on surface-captured A1 domain variants, parallel plate flow chamber (Table 4, Example 3); assay type: cell-based; conditions: shear rate 1500 s^−1; mean ± std. dev., number of measurements in parentheses; NB = No Binding
T1 construct: endogenous in cells; host or cells: platelets in citrated whole blood of normal healthy volunteer donors
Protocol: The determination and analysis of platelet pause times and instantaneous translocation velocities over surface captured A1 and RCAM A1 was performed as previously described (Tischer:2013). Here, the inventor used the Cellix Mims Evo syringe pump controlled by VenaFluxAssay (www.cellixltd.com). Vena8™ CGS biochips were custom designed with 800 μm width by 80 μm height microchannels bonded to glass slides with a Cu^2+ chelated PEG surface serviced by Microsurfaces Inc. (www.proteinslides.com/histag.html) to which the A1 and RCAM A1 in TBS were captured by the 6×His-Tag at a total concentration of 5 μM. Citrated whole blood was obtained from the informed consent of healthy volunteer donors with approval from the Mayo Clinic Institutional Review Board and 100 μL was perfused over the surface captured A1 domains at 700 s^−1. The shear was increased or decreased in a stepwise manner to measure the dynamics of platelet adhesion at high and low shear. After allowing the flow chamber to equilibrate for 50 s at each shear rate, 1 min movies were recorded at 24 frames per second in phase contrast at 200× magnification with 2×2 pixel binning on a Zeiss AxioCam Mrm camera (6.45 μm/px) attached to a Zeiss Axio Observer.D1 inverted microscope. Tracking analysis was performed using MediaCybernetics ImagePro® Premier (www.mediacy.com/index.aspx?page=IP\_Premier) The distance travelled in the direction of flow was calculated from the coordinate data for each platelet as a function of time using √{square root over ((xt−x0)^2)}, where x0 is the coordinates of a platelet on the first frame of the movie and xt is the coordinate on subsequent frames of the movie. These trajectories were differentiated into instantaneous velocities using a Savitzky-Golay algorithm (Savitzky:1964) with a five data point window size and a second order polynomial implemented into a Mathematica (www.wolfram.com/mathematica) notebook written in our lab. Trajectories were retained for statistical analysis if the platelet was present for ≧1 s and travelled a total distance greater than 1 Distance travelled in pixels (px) was converted to (μm) using 6.45 μm/px*2/200=0.0645 μm/px. Pause times were determined by the amount of time (sec) a platelets velocity was 0±4 px/s≅0±0.23 μm/s, within the noise. Data are reported as mean velocities and pause times attained by individual platelets averaged over all platelets analyzed. Integral analysis of the cumulative pause time histogram gives the survival fraction, equation (24).
The rheological interaction of platelets with A1 domain variants harboring type 2M and type 2B mutations was studied using recently developed flow-chamber methods (19). The A1 domains ([…]) were immobilized on Vena8™ biochips (Cellix, Dublin, Ireland) coated with a Cu^2+-chelated poly-ethylene-glycol surface serviced by MicroSurfaces, Inc. (Englewood, N.J.) via the 6×His-Tag, enabling the preservation of the structural properties of the domain in solution and its concomitant effects on platelet adhesion under rheological shear flow. One-hundred microliters of citrated whole blood, obtained from the informed consent of normal healthy volunteer donors with approval from the Mayo Clinic Institutional Review Board (Rochester, Minn.), was perfused at a shear rate of 800 s^−1 followed by Tris-buffered saline. Platelets translocating on the surface-captured domains were filmed at 24 frames/s for 1 min at logarithmic intervals of the shear rate. Coordinates obtained from tracking analysis of the resulting movies were processed using the inventor recently developed statistical analytics for the quantification of cellular adhesion dynamics across immobilized receptors under rheological shear flow (supra). Biochips lacking the surface-captured A1 domain were completely inert to platelets.

[2] = determined previously (Auton:2009); cited from earlier work

Pause Time 1500 s^−1 (s) (platelet GPIbα): 0.67 ± 0.07 (6) s
Substance: A1-1238: Recombinant human vWF A1 domain, amino acids Q1238-P1471, with N-terminal 6×His-Tag, disulfide intact
A1 domain Conformation [1]: N (N = “Native” (native structure with varying thermodynamic stability))
Tm from reversible N<->I urea-temperature phase diagram [2]: 51.1±0.5 ° Celsius
